± gives the uncertainty stated by the source.
Experiment: amyloid nucleation score (Sup35N fusion, yeast selection) (log enrichment); library NNK2; higher = more nucleation; inactive = no reads after selection
Summary of the method: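 The nucleation score is the DiMSum log enrichment of output over input reads, centred on the mode score of non-aggregating sequences. Only sequences with 100 or more input reads were scored, using Illumina sequencing of input and output plasmid inserts. Psi-negative yeast expressing Sup35N fused to peptides of 20 random codons were induced 24 hours with 100 μM copper sulfate and grown 7 days at 30°C on medium lacking adenine and uracil.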

| Substance | amyloid nucleation score |
| --- | --- |
| DKMYVIIVGPLAAMENVNNT | 0.024 ± 0.48 |
| VAYYLCAGTSGDTFGKANQS | 0.222 ± 0.8 |
| SSVRCTYGLNCNQRL | 2.92 ± 0.076 |
| KNILGGDSFWFLLYGYHLFI | inactive |
| CTCTDTEDKWVKSGYSRGAH | 2.22 ± 0.079 |
| NLHLSGKMGSPTFRVRIYAH | inactive |
| KYHRI | -0.721 ± 0.74 |
| LLSVCFSRARC | 1.07 ± 0.23 |
| QEVELGMGPKRGETVKEVDL | 0.098 ± 0.22 |
| ILDSGVRYVFMRWLIGYCND | -0.513 ± 0.33 |
| YSMICGLHCSVLFRGNSEGT | 4.782 ± 0.039 |
| FRLLWCMFSL | 0.571 ± 0.13 |
| PAFQCMVQMKPGLWVV | -0.456 ± 0.78 |
| ISYHSVWDKLFFYVVDFYTS | -0.591 ± 1 |
| FLCMFMFESWYDHNAVAVSY | 0.66 ± 0.57 |
| LMINGRLRDITMDATVYCNS | 0.764 ± 0.2 |
| LIVTLSDRWWEKGASLVESG | 0.699 ± 0.15 |
| TWQIFFGIFGFSFY | 4.18 ± 0.062 |
| NLMIKCVGR | -1.05 ± 0.76 |
| NLNPRCIACLQQPTFHMKMA | -0.101 ± 0.32 |
| RVGQGSEACFRSWSIAGPPY | 2.8 ± 0.14 |
| TDGELDSPQ | 0.165 ± 0.37 |
| SVVGFTPQKL | -0.049 ± 0.34 |
| LYDWRWSWSRSATSSFGWLT | 0.296 ± 0.49 |
| VNWVGLSLKIRGYFTVSTWR | -0.141 ± 0.54 |

| Substance | amyloid nucleation score |
| --- | --- |
| HVLEVPPAYPTQTSGMNPNS | -0.143 ± 0.76 |
| DEGVPSGYVTAL | -0.354 ± 0.76 |
| YCMMPATGICVLDVSVCRDT | 8.289 ± 0.054 |
| YGMVIRCPARVCVQTLFNNA | 4.86 ± 0.094 |
| IGFSPLCQYHYCAYGCY | 7.695 ± 0.032 |
| WLYALWCDWSA | 3.97 ± 0.061 |
| ISSMSTLFCLFRGCVGGEYI | -2.18 ± 0.64 |
| LTYRVCHEVQGQRYCMAREH | 0.174 ± 0.74 |
| RWLDSERRTTRHLCSRGYST | 1.24 ± 0.38 |
| FSCMISIKRFFRVAKNASGY | 4.84 ± 0.084 |
| GVAELNLN | inactive |
| FLRFLVCLG | -0.22 ± 1.1 |
| QGSNRACGLSEDCLFTV | 0.282 ± 0.22 |
| GVCMSLEVKNKKLSNEHNS | 5.18 ± 0.092 |
| IQGPIVEFTISIRSSSRRHW | 3.1 ± 0.083 |
| WYVLAWDPPLSFMCLGDV | 0.666 ± 0.53 |
| VWLNHLTTIYYCNHKLCLLL | 2.17 ± 0.22 |
| VCVIISLHRV | 4.99 ± 0.058 |
| SLGNVHRLL | -0.246 ± 0.79 |
| LCTIRFVNIFVCRMSKLNSH | -1.4 ± 0.62 |
| TSRLHNFATRIIVCYRLLMQ | -0.525 ± 1.1 |
| MDYWVFMPFQLHRLCCYTPL | -0.303 ± 0.24 |
| STGCSYHFRMIHATVTTYFG | 3.59 ± 0.053 |
| LCCGLFFFVRVY | 2.06 ± 0.091 |
| LVLPYSGTHAGLRVWCGSSV | 0.696 ± 0.34 |

| Substance | amyloid nucleation score |
| --- | --- |
| TSSTLGLYSHDMPTATHLME | -0.176 ± 0.41 |
| IVGDVHSLMILRVKSAFKFT | 2.81 ± 0.16 |
| LSSHVCGGM | 4.8 ± 0.054 |
| VVVSRTITLSTSYEFYIVKY | 0.798 ± 0.32 |
| HFKWNYYSYSVWEWVFEQLH | -0.36 ± 0.63 |
| RARGIV | -0.664 ± 0.55 |
| ENSFLVRKTSH | -0.262 ± 0.36 |
| MEKVHV | 1.65 ± 0.48 |
| VWLYCSEQDRCVMLASRELL | 0.465 ± 0.34 |
| NCYRLWWPVLSTWWRFFI | 0.047 ± 0.35 |
| NKANLLYSPLLCLMAVHRMY | inactive |
| AWRYWFHTLSLTLKNWTSVF | 5.14 ± 0.087 |
| KNKSFNMACPVLVYGGFLIR | inactive |
| ENIISERAFS | inactive |
| NGVPT | -1.43 ± 1.1 |
| NRNHMCRSCYMGWFRGRAKA | -1.04 ± 0.42 |
| NFCALSKCT | -0.618 ± 0.63 |
| EIHYMCELIMQWVYSGLTSR | 0.607 ± 0.35 |
| RRYYNAQHVVVYELEVESLS | 0.453 ± 0.66 |
| CFRKLQYISFYYTTWVILDA | inactive |
| GCKVIYIYIIHIFKCIITNW | inactive |
| TITNCP | inactive |
| VWPTMCTVFAMF | 2.51 ± 0.065 |
| WVNSCVPGLARPNSLFFNRS | -0.491 ± 0.56 |
| FFSVPGAWCDKWALALANY | -0.564 ± 0.38 |

| Substance | amyloid nucleation score |
| --- | --- |
| KIVCDPGCIFMPFLCVCLLW | 6.07 ± 0.082 |
| VSFNGSVGMS | -0.907 ± 1.1 |
| YDDKGEIRLPDQSMNCFVSD | -0.766 ± 1 |
| NCSSIF | inactive |
| YIWNCDSDSIVPLLL | inactive |
| VYIYSGFVVSWLRFFGVMRP | -0.394 ± 1.1 |
| ILSCGRYWRTDTIVVTGNST | 1.91 ± 0.35 |
| WSVYKVLYCLTGFRFQRSRL | inactive |
| MKCDIFGGLSDN | 0.698 ± 0.62 |
| NLPLL | -0.027 ± 0.54 |
| SHGWGTAAVWNIAVCRRSLG | 0.129 ± 0.39 |
| NFIVW | -0.417 ± 0.64 |
| NFSDFRCLL | -0.031 ± 1 |
| DPNLGLSTW | 0.47 ± 0.34 |
| VVRYLYRWTTVVGLHGGSHN | -0.786 ± 0.43 |
| SGFLDLPVYPVYNHNRTKMI | 0.267 ± 0.57 |
| RNRSGVMW | 0.276 ± 1 |
| TAMFPHVRYSDTSYPAKRAV | -0.947 ± 0.41 |
| RWAFTSFGSCLDKCYKYDYC | -0.913 ± 0.49 |
| VVSTESVNVI | 0.889 ± 0.27 |
| LFGSKVHSSWRPSCLFTSAV | 0.377 ± 0.33 |
| IFGLCCFCGSYQRY | 8.152 ± 0.033 |
| HMARYKIMSVLEIFHYMNRL | 3.16 ± 0.16 |
| FLHVSRDLPYYYCFLV | -0.703 ± 0.74 |
| VHRSLSLFSFKSSECRPS | 6.456 ± 0.064 |

| Substance | amyloid nucleation score |
| --- | --- |
| THRTGLDK | 0.319 ± 0.36 |
| WWTIIICNWSVSKGQDDNRA | 7.238 ± 0.059 |
| YYMRRVSGLDISGRMCCKSV | 0.106 ± 0.42 |
| SFNWNC | -1.15 ± 0.76 |
| IDLSTMTAGTCISYCVYCRI | 5.25 ± 0.1 |
| EGLQFRCLRNSEILVCGYFS | 0.466 ± 0.54 |
| SNTHISYYWGTNVWLHVDIN | 6.194 ± 0.028 |
| SCLLYCYSNSWFFIFNQR | -0.979 ± 1 |
| ALILECRVRSRS | 4.16 ± 0.12 |
| CVWGWNRSYTYYYGDAIGHC | inactive |
| LYVNLRCRNYYVAVPVGDWD | 4.9 ± 0.068 |
| RYRALPTMPLEMSVQGDLRV | -0.319 ± 0.25 |
| TLLWYCTIADRNSNVRMVAS | 0.966 ± 0.24 |
| YCLSDKWTLCG | 0.367 ± 0.41 |
| YKVYPWLFIYLLLLDRAD | -1.45 ± 0.73 |
| RGFRGRFVFGRT | -0.183 ± 0.49 |
| NSPNCDHASRKLIHR | 0.07 ± 0.61 |
| EVGILVTVVYSGKWKVSRCM | 1.87 ± 0.48 |
| RNMVVGVGRRP | -0.15 ± 0.45 |
| VYVSYVAIFLPEPLVCDNVE | 7.192 ± 0.04 |
| VVLGLDNPIHLIFLKDVNYC | -1.5 ± 1.1 |
| CFESHWCRYPLDGRLGHKEF | inactive |
| LIGYI | 1.96 ± 0.11 |
| TLSLSYALLSCVSVIKCPLV | -0.451 ± 0.79 |
| RIRHCGQFYSMHGKRRIATH | 1.17 ± 0.34 |

| Substance | amyloid nucleation score |
| --- | --- |
| IVGATYHLSWLPGYTGIYRG | 1.25 ± 0.47 |
| CRHYKFV | -0.097 ± 1.1 |
| QASSGSKDLD | 0.102 ± 0.23 |
| MSWAVRDSIHRNYLKFVNRR | -0.02 ± 1.1 |
| CFSRMRRTEW | -0.142 ± 0.23 |
| ETPIIRDQYKLGYNLRTSVL | inactive |
| QMSLAGRG | inactive |
| VALQWMG | 2.2 ± 0.19 |
| DTILWRSSHAEGTEAWHMGF | 1.28 ± 0.38 |
| MIQEVLWLVSS | 0.043 ± 0.49 |
| AALHNYAVSFCFMSPMKQKT | -0.542 ± 0.76 |
| KGPDITEHTITRGPEGNSRY | -0.17 ± 0.65 |
| EYYLSVYSYYCYCLTCMFVI | 3.46 ± 0.15 |
| AEDFVLAEEYI | -0.285 ± 0.76 |
| IVLTLDLSRRVGMRNCVLLG | -0.063 ± 0.54 |
| SDLANTLEPELQAFVIQ | -0.029 ± 0.61 |
| CVDVDIKMLPGFCRCNIPLC | -1.34 ± 1.1 |
| FSRLTGN | -0.883 ± 0.54 |
| DNVMLYKRKKQRPIMVPWSA | -0.488 ± 0.35 |
| EVWRWIFNHGLPRHAGHIVA | 0.312 ± 0.43 |
| IRQPSVKQPWTVAKTFH | 0.052 ± 0.5 |
| SGFMLKWCKY | 0.874 ± 0.55 |
| LWFLS | 0.393 ± 0.33 |
| ACSVNCLRECNR | inactive |
| VCYIPYMLRSHLNALTFLSV | -0.492 ± 0.76 |

| Substance | amyloid nucleation score |
| --- | --- |
| SRYKWKTDVHTKWTCHF | 1.73 ± 0.091 |
| VPVSRILNLFFVLVTL | 6.45 ± 0.086 |
| LAWLCRWGSVTYYCYSFGQV | -0.841 ± 0.62 |
| KWIRDIRDLQTH | -0.275 ± 0.65 |
| LFWELEM | 4.7 ± 0.091 |
| PLTNSNRPGMKHLSSKQSSV | 0.138 ± 0.41 |
| VLCTYRGLDITL | 0.166 ± 0.21 |
| CVMSFYPELIILASSFCVPF | -1.22 ± 0.36 |
| VFGYTSRR | 3.49 ± 0.057 |
| MDAYRCWAQMYRTYMLMCLV | 0.039 ± 0.27 |
| EDIWEMRSLHLWLSCSGWTD | 2.27 ± 0.15 |
| RARARHDLRGQRKVLRDRRF | 0.849 ± 0.5 |
| VSELGSGSFIFCTFLADFHM | 6.3 ± 0.079 |
| LVFKAPRTITSPCCYGSNWS | 0.504 ± 0.36 |
| CMFKQYYYCARAYSVSWTVM | -0.013 ± 0.56 |
| SMFFYSFNWLQFYFRVDVHW | -0.311 ± 1.1 |
| YDQVSFAL | -0.584 ± 0.76 |
| WYTDPDSDVAHYFAPQLK | -0.693 ± 1.1 |
| YNMIYYQLNTMLVHDMIKYG | 3.56 ± 0.073 |
| GNEVRGNTMVENPTMSLVMG | 0.712 ± 0.39 |
| NTVKKLHLLQHHRVYVCATT | -0.965 ± 0.78 |
| VTFYLGSSE | 0.155 ± 1.1 |
| NTGVIYDAT | -0.307 ± 0.63 |
| VAQSRLT | 0.521 ± 0.8 |
